The results in this text go back to the DeepSol protein solubility set.

This data set in a line: soluble on expression in E. coli; label from the status in PepcDB or PDB records.
On to “MRNVLKAETLERKFPLLSVENGCIVSKDADLTVAFEVELPELFTMTAAEYEAVHSSWVKAVKVLPDFSVVCKQDWFTKETYRPDFRDGEQSFLSKSYERHFNERPYLNHKCYLYLTKTTRERSRQRSDFNSLCCGSLLPKEMVDKDTAVRFLEAVEQFERIMNDSGHVSLRRLEADEITGTEGRPGLVEKYFSLSLEDETAVLQDICLNPGGMRVGDKRLCVHTLSDTEDLPVRVSTDMRYGRMSTDRSDCRLSFAAPVGLLLPCNHIYSQYVFIDDAQEILRTMEKTSRNMLSLSKYSRSNAVNREWTEMYLDEAHTKGVLPVRCHCNVMAWAEDREELRRVKNDTGSQLAMMECTPRHNTVDAPVLYWAGIPGNAGDFPAEESFYTFLEQAVCLFTAETNYRSSSSPFGIRMADRRNGIPLHVDISDLPMKRGIITNRNKFVLGPSGSGKSFFTNHLVRQYYEQGTHILLVDTGNSYQGLCRMIHDRTHGEDGIYITYEEDNPIAFNPFYTDSGQFDVEKRESIKTLILTLWKREDEAPKRSEEVALSGAVNAYIRRITDDRASRPDFNGFYEFVRDDYRRMIEQKKVREKDFDIDGFLNVLEPFYRGGDYDFLLNSDKELDLTNKRFIVFELDNISSNKVLLPVVTLIIMETFISKMRKLRGIRKMILIEECWKALMSANMSEYIKYLFKTVRKYFGEAVVVTQEVDDIISSDIVKEAIINNSDCKILLDQRKYMNKFEHIQKLLGLTEKERGQILSINRANRPGPFYREVWIGLGGTHSAVYATEVSAEEYAVRP”, for which the “soluble on expression in E. coli” value is given as “not soluble”. As for “SAQEEGGSLPEVRARVRAAHGIPDLAQKLHFYDRWAPDYDQDVATLLYRAPRLAVDCLTQALPGPPHSALILDVACGTGLVAAELRAPGFLQLHGVDGSPGMLEQARAPGLYQRLSLCTLGQEPLPSPEGTFDAVLIVGALSDGQVPCNAIPELHVTKPGGLVCLTTRTNWSNLQYKEALEATLDRLEQAGMWEGLVAWPVDRLWTAGSWLPPSWWWYPASLPRMASSPALSTCTESGRRPRLRK”, the entry is “soluble”; as for “MATNKERLFAAGALGPGSGYPGAGFPFAFPGALRGSPPFEMLSPSFRGLGQPDLPKEMASLSVETQSTSSEEMVPSSPSPPPPPRVYKPCFVCNDKSSGYHYGVSSCEGCKGFFRRSIQKNMVYTCHRDKNCIINKVTRNRCQYCRLQKCFEVGMSKEAVRNDRNKKKKEVKEEGSPDSYELSPQLEELITKVSKAHQETFPSLCQLGKYTTNSSADHRVQLDLGLWDKFSELATKCIIKIVEFAKRLPGFTGLSIADQITLLKAACLDILMLRICTRYTPEQDTMTFSDGLTLNRTQMHNAGFGPLTDLVFAFAGQLLPLEMDDTETGLLSAICLICGDRMDLEEPEKVDKLQEPLLEALRLYARRRRPSQPYMFPRMLMKITDLRGISTKGAERAITLKMEIPGPMPPLIREMLENPEMFEDDSSQPGPHPNASSEDEVPGGQGKGGLKSPA”, “soluble”; as for “MLFTEMEIEIPKAVFEELQLYIEYLQEKTGKTIDPMAAIGNILQTYFENNGLWGVSEEDFKEKAKIAVKKLLTKKAKKDKPLLTKKVEKLLTQAVEIEQVPAKTAGQIAYQAKALVQVTFPHRDPKTPYYRCDSGKYSLIITADPDHGIPYGTYPRLITCWLVTEIVRTNSRRIVLGKCFSDFLRSIGVGLDSRTRKQVEQQIKRLFSADIKLKYNSKESWQFQRCNVATKAAMWWDTKNPDQFTLDESFVVVGEDFYAMALNAPFPIDLRALAALKQSPMALDIYMWLTLRMCHLAAPYPLSWPQLKSQFGPETSDLDNFRTKFKDALKKVRVVYPHAKLSVNAKELTLFPSPTHVQKAVKRVAALEHHHHHH”, “soluble”. Consider “PAEIHIITAARGRGKSTLAGKLAEQFAKTEQVILTAHRSSSIQKILQTASINIPFFAPDKLLNLIETKQISADHLLFIDEAACIPLPILQQLGNYFKKVILTTTTQNYEGTGRGFKLKLVKQLHRTTKEWQLFQPLRWSNHDRLEQFTNELLLLN”, for which the “soluble on expression in E. coli” value was “not soluble”. “MASYDKISDGWYRVCPKRSSNRALITVKLPFSTLFRLKPMTDITPFANRLGKNIKHLMKWAKRNGIEAWRIYDRDIPQFPFAADVYGDRIHLQEYDTGWLMRPEEYEAWLAEVLEAVAFVTGFAPEQIRLKRRERQKGLQQYEKTGKAGDDFVITENGRKFWVNLDKYLDTGLFLDHRNTRKKVGETAAGKRFLNLFSYTGSFTVYAATGGAASSETVDLSNTYLDWAKRNFELNGIDTERHKIVRADVFQYLQTAYGEGRRFDLIVMDPPSFSNSKKMSDILDIQRDHKKLIDGAVKLLASDGILYFSNNLRSFVLDDLVSEQYAVKDISKQSVPEDFRNKKIHRCWEIRHKS”: the “soluble on expression in E. coli” value was “not soluble”.
